Test results: paper PMC11335306

Key:
[1] = target: BTV-15-VP5-Δ43-Nhis, unlabelled (Bluetongue virus serotype 15); experiment: crystal structure; low pH crystal form: 1.0 M sodium chloride, 0.1 M Tris (pH 6.0), 20 °C; space group H3; native protein
[2] = target: BTV-15-VP5-Δ43-Nhis, seleno-methionyl-derivatised (Bluetongue virus serotype 15); experiment: crystal structure; high pH crystal form: 0.09 M sodium formate, 6.6% PGA-LM, 0.1 M Tris (pH 9.0), 20 °C; space group P1, nine subunits in the asymmetric unit; Se-Met protein

Substance	stoichiometry N [1]	stoichiometry N [2]
BTV-15-VP5-Δ43-Nhis, unlabelled (domain or fragment)	3	–
BTV-15-VP5-Δ43-Nhis, seleno-methionyl-derivatised (domain or fragment)	–	3
